Test results: the supplement of paper PMC10065799, “High-throughput profiling of sequence recognition by tyrosine kinases and SH2 domains using bacterial peptide display” (eLife, 2023)

The sequences below were run against Jak2 (UniProt O60674) (assay: phosphorylation enrichment, bacterial display (enrichment ratio); higher = better substrate or ligand; peptides without Tyr show the background).
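Note: 11-residue human phosphosite peptides and single-mutation variants displayed on the E. coli surface, counted by deep sequencing, each peptide's frequency after selection divided by its frequency in the unselected input library; frequency after pTyr selection over input frequency; kinase dosed for 20-30% of maximal phosphorylation in three min.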

Jak2, sequence (O60674 whole entry, looked up): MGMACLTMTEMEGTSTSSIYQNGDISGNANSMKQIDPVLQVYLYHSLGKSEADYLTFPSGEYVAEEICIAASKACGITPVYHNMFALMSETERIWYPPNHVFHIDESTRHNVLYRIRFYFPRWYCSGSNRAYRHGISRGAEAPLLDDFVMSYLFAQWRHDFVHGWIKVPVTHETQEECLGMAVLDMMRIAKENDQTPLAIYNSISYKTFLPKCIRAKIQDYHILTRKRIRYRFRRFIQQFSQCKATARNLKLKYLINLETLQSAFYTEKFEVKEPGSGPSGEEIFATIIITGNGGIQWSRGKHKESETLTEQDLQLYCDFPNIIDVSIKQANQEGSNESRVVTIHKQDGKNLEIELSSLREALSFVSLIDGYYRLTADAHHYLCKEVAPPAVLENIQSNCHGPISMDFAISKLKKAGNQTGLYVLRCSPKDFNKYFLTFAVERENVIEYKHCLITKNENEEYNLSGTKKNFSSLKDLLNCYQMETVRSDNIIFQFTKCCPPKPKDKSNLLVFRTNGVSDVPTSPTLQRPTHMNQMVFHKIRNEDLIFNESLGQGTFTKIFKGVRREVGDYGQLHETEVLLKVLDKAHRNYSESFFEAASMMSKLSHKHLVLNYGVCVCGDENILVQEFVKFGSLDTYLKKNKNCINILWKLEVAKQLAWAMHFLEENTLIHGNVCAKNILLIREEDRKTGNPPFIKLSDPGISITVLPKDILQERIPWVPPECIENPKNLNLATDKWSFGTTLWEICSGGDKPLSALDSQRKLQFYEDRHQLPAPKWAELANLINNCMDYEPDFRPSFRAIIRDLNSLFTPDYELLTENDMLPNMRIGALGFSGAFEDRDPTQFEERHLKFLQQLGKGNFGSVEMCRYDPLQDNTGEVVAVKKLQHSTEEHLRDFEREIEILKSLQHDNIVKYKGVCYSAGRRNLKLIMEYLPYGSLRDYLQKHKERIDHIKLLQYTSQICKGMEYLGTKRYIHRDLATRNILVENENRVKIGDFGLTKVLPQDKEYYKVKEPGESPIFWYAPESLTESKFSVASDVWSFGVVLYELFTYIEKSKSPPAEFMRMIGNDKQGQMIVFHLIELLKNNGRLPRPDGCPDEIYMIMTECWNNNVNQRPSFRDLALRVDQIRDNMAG

| Sequence | phosphorylation enrichment |
| --- | --- |
| IFKAAYFGVFD [SLC25A4_Y191_R188K_YF] | 1.08 |
| VVSMNYRVGAL [BCHE_Y174] | 0.722 |
| HIILLYIFLKN [STXBP1_Y411_R406H] | 1.16 |
| RSDEDYLFREE [POR_Y573_YF] | 1.66 |
| SDVSSYLEGQA [GCG_Y110] | 0.769 |
| YDKEYYSVHNK [MET_Y1235] | 1.01 |
| LGQRIYQYIQS [DYRK1B_Y271] | 1.3 |
| SQAPGYSFTAA [CYCS_Y47_G42S_YF] | 0.673 |
| QPGTDYKIFLF [FN1_Y1970_YF] | 1.72 |
| HFMELYDLNRD [BBS2_Y648_R643H_YF] | 1.28 |
| KASRKYYAMKI [AKT3_Y173_G171R] | 0.484 |
| TSHKGYVAFLE [CARD9_Y76_G72S] | 0.676 |
| DTKAFYPEEIS [HSPA1A_Y115_E110D] | 0.933 |
| YLRTGYSIPYG [TGM1_Y370_V372I] | 0.804 |
| DVCKNYTEAKD [ALB_Y343_A344T] | 0.712 |
| ALCHYYKLNII [ETV6_Y402_R399C] | 3.3 |
| SMEGLYSSAQD [CLIC5_Y111_T114A] | 1.3 |
| APSGNYVACGG [GNB1_Y111] | 0.571 |
| ATGGFYSYGGG [KRT24_Y120] | 0.858 |
| GFKVRYATWSI [FGFR1_Y210_YF] | 0.997 |
| FKDGQYWIRGW [ACSF3_Y466_R471W] | 0.927 |
| LKGIRYLTSGL [PIGA_Y82_R77L] | 0.959 |
| MFNPCYGLFEY [NEDD4L_Y680_Y679C] | 1.11 |
| GGQVFYNSEYG [FLT4_Y1333] | 0.751 |
| SSPMKYQQNVS [EGFEM1P_Y160] | 0.623 |
| MNPPPYSQLLS [FGF23_Y154_F157L] | 0.523 |
| SDVCMYRKNTF [SYNE2_Y570_I574T_YF] | 0.726 |
| SGGSSYGSGGG [KRT1_Y532] | 0.537 |
| KKMEVYQSIAD [MYBPC3_Y548_L545M] | 1.04 |

Each sequence was assayed against Fyn (UniProt P06241) in the same assay as above.
Fyn, sequence (P06241 whole entry, looked up): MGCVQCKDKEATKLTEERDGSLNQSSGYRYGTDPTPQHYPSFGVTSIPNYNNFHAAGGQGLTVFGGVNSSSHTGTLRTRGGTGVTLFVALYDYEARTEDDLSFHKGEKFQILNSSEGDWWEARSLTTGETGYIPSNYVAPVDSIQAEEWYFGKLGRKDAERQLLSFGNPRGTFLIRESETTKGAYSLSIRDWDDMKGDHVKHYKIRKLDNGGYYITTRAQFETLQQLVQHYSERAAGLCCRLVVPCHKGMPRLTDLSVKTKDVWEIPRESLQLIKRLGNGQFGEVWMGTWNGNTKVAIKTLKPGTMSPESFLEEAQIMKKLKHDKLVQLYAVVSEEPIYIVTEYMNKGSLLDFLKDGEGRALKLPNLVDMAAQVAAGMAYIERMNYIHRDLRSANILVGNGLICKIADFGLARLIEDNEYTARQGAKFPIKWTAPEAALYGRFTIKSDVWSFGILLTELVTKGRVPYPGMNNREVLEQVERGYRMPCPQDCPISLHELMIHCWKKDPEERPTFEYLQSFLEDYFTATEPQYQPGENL

| Sequence | phosphorylation enrichment |
| --- | --- |
| IFKAAYFGVFD [SLC25A4_Y191_R188K_YF] | 0.544 |
| VVSMNYRVGAL [BCHE_Y174] | 0.336 |
| HIILLYIFLKN [STXBP1_Y411_R406H] | 0.447 |
| RSDEDYLFREE [POR_Y573_YF] | 0.768 |
| SDVSSYLEGQA [GCG_Y110] | 0.447 |
| YDKEYYSVHNK [MET_Y1235] | 0.455 |
| LGQRIYQYIQS [DYRK1B_Y271] | 4.18 |
| SQAPGYSFTAA [CYCS_Y47_G42S_YF] | 0.443 |
| QPGTDYKIFLF [FN1_Y1970_YF] | 0.591 |
| HFMELYDLNRD [BBS2_Y648_R643H_YF] | 1.38 |
| KASRKYYAMKI [AKT3_Y173_G171R] | 0.267 |
| TSHKGYVAFLE [CARD9_Y76_G72S] | 0.353 |
| DTKAFYPEEIS [HSPA1A_Y115_E110D] | 0.441 |
| YLRTGYSIPYG [TGM1_Y370_V372I] | 0.375 |
| DVCKNYTEAKD [ALB_Y343_A344T] | 0.497 |
| ALCHYYKLNII [ETV6_Y402_R399C] | 0.798 |
| SMEGLYSSAQD [CLIC5_Y111_T114A] | 2.67 |
| APSGNYVACGG [GNB1_Y111] | 0.363 |
| ATGGFYSYGGG [KRT24_Y120] | 2.39 |
| GFKVRYATWSI [FGFR1_Y210_YF] | 0.494 |
| FKDGQYWIRGW [ACSF3_Y466_R471W] | 0.513 |
| LKGIRYLTSGL [PIGA_Y82_R77L] | 1.05 |
| MFNPCYGLFEY [NEDD4L_Y680_Y679C] | 5.24 |
| GGQVFYNSEYG [FLT4_Y1333] | 0.456 |
| SSPMKYQQNVS [EGFEM1P_Y160] | 0.339 |
| MNPPPYSQLLS [FGF23_Y154_F157L] | 0.522 |
| SDVCMYRKNTF [SYNE2_Y570_I574T_YF] | 0.395 |
| SGGSSYGSGGG [KRT1_Y532] | 0.382 |
| KKMEVYQSIAD [MYBPC3_Y548_L545M] | 0.943 |

Each sequence was assayed against Fes (UniProt P07332) in the same assay as above.
Fes, sequence (P07332 whole entry, looked up): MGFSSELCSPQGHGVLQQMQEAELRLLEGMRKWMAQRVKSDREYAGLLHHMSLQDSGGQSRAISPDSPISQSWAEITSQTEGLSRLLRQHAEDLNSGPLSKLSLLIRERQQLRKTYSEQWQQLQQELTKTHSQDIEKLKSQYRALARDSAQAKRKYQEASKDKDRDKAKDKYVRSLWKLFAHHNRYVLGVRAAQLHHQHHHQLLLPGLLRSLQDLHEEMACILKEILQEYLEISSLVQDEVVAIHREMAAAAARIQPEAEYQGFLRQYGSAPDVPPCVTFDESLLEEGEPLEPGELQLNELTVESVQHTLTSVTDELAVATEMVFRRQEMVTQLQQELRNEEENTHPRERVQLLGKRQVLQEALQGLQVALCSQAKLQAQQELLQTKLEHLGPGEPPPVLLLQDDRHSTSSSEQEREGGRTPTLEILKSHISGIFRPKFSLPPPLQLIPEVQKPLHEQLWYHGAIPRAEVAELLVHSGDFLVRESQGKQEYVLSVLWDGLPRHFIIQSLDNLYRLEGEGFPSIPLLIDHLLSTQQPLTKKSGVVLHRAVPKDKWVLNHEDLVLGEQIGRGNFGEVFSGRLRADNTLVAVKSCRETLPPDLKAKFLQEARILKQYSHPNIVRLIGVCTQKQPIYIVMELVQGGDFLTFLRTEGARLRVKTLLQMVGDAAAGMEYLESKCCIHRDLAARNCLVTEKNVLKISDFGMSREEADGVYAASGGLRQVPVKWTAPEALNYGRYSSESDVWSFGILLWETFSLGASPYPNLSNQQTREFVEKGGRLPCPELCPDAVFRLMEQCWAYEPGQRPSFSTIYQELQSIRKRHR

| Sequence | phosphorylation enrichment |
| --- | --- |
| IFKAAYFGVFD [SLC25A4_Y191_R188K_YF] | 1.21 |
| VVSMNYRVGAL [BCHE_Y174] | 0.802 |
| HIILLYIFLKN [STXBP1_Y411_R406H] | 1.6 |
| RSDEDYLFREE [POR_Y573_YF] | 2.36 |
| SDVSSYLEGQA [GCG_Y110] | 0.938 |
| YDKEYYSVHNK [MET_Y1235] | 0.754 |
| LGQRIYQYIQS [DYRK1B_Y271] | 2.86 |
| SQAPGYSFTAA [CYCS_Y47_G42S_YF] | 0.701 |
| QPGTDYKIFLF [FN1_Y1970_YF] | 2.44 |
| HFMELYDLNRD [BBS2_Y648_R643H_YF] | 1.18 |
| KASRKYYAMKI [AKT3_Y173_G171R] | 0.476 |
| TSHKGYVAFLE [CARD9_Y76_G72S] | 0.762 |
| DTKAFYPEEIS [HSPA1A_Y115_E110D] | 1.1 |
| YLRTGYSIPYG [TGM1_Y370_V372I] | 0.677 |
| DVCKNYTEAKD [ALB_Y343_A344T] | 0.963 |
| ALCHYYKLNII [ETV6_Y402_R399C] | 1.62 |
| SMEGLYSSAQD [CLIC5_Y111_T114A] | 1.55 |
| APSGNYVACGG [GNB1_Y111] | 0.788 |
| ATGGFYSYGGG [KRT24_Y120] | 1.11 |
| GFKVRYATWSI [FGFR1_Y210_YF] | 1.22 |
| FKDGQYWIRGW [ACSF3_Y466_R471W] | 1.13 |
| LKGIRYLTSGL [PIGA_Y82_R77L] | 1.09 |
| MFNPCYGLFEY [NEDD4L_Y680_Y679C] | 1.32 |
| GGQVFYNSEYG [FLT4_Y1333] | 0.779 |
| SSPMKYQQNVS [EGFEM1P_Y160] | 0.592 |
| MNPPPYSQLLS [FGF23_Y154_F157L] | 0.623 |
| SDVCMYRKNTF [SYNE2_Y570_I574T_YF] | 0.904 |
| SGGSSYGSGGG [KRT1_Y532] | 0.583 |
| KKMEVYQSIAD [MYBPC3_Y548_L545M] | 1.04 |

What follows are sequences tested on c-Abl (mouse) in the same assay as above.

| Sequence | phosphorylation enrichment |
| --- | --- |
| IFKAAYFGVFD [SLC25A4_Y191_R188K_YF] | 0.773 |
| VVSMNYRVGAL [BCHE_Y174] | 0.556 |
| HIILLYIFLKN [STXBP1_Y411_R406H] | 1.2 |
| RSDEDYLFREE [POR_Y573_YF] | 1.31 |
| SDVSSYLEGQA [GCG_Y110] | 0.678 |
| YDKEYYSVHNK [MET_Y1235] | 0.684 |
| LGQRIYQYIQS [DYRK1B_Y271] | 2.74 |
| SQAPGYSFTAA [CYCS_Y47_G42S_YF] | 0.764 |
| QPGTDYKIFLF [FN1_Y1970_YF] | 1.4 |
| HFMELYDLNRD [BBS2_Y648_R643H_YF] | 0.943 |
| KASRKYYAMKI [AKT3_Y173_G171R] | 0.393 |
| TSHKGYVAFLE [CARD9_Y76_G72S] | 0.602 |
| DTKAFYPEEIS [HSPA1A_Y115_E110D] | 0.752 |
| YLRTGYSIPYG [TGM1_Y370_V372I] | 0.702 |
| DVCKNYTEAKD [ALB_Y343_A344T] | 0.549 |
| ALCHYYKLNII [ETV6_Y402_R399C] | 2 |
| SMEGLYSSAQD [CLIC5_Y111_T114A] | 1.05 |
| APSGNYVACGG [GNB1_Y111] | 0.584 |
| ATGGFYSYGGG [KRT24_Y120] | 0.763 |
| GFKVRYATWSI [FGFR1_Y210_YF] | 0.711 |
| FKDGQYWIRGW [ACSF3_Y466_R471W] | 0.636 |
| LKGIRYLTSGL [PIGA_Y82_R77L] | 1.28 |
| MFNPCYGLFEY [NEDD4L_Y680_Y679C] | 0.842 |
| GGQVFYNSEYG [FLT4_Y1333] | 0.497 |
| SSPMKYQQNVS [EGFEM1P_Y160] | 0.562 |
| MNPPPYSQLLS [FGF23_Y154_F157L] | 0.489 |
| SDVCMYRKNTF [SYNE2_Y570_I574T_YF] | 0.636 |
| SGGSSYGSGGG [KRT1_Y532] | 0.633 |
| KKMEVYQSIAD [MYBPC3_Y548_L545M] | 0.764 |
